Here are results for 18 molecules from US20230357429A1 (JANUX THERAPEUTICS, published 2023).

As a reminder, the EC50 is the concentration needed to bring the measured effect to its halfway point. What is called IC50 is the midpoint of a concentration-inhibition curve.

Assay [1] concerns the target T1, Human TROP2 ECD (31-274 AA) (human, UniProt P09758 31-274, biotinylated).
T1 construct: also called biotinylated TROP2; TROP2-biotin
T1 sequence: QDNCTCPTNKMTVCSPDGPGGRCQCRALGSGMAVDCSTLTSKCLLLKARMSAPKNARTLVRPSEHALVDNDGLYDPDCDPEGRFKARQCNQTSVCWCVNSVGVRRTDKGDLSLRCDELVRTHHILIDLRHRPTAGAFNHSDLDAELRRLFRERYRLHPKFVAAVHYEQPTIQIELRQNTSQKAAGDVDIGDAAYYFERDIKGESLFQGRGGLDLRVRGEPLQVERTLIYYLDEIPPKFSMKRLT
The assay is described as follows: ELISA; biotinylated TROP2 on neutravidin plates, PC titrated, HRP secondary.

A further assay deals with T2, Cyno TROP2 Full length (cynomolgus monkey, UniProt P09758 31-323 (human entry)).
T2 chain: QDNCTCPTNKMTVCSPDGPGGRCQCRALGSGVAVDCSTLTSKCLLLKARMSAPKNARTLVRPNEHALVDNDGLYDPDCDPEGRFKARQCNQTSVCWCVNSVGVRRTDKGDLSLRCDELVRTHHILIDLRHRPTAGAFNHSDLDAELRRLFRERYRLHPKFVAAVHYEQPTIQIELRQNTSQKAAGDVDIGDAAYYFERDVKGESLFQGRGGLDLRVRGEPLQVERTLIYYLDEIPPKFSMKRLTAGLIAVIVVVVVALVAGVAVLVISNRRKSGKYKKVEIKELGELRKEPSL
Put plainly: cell-based or functional assay.

A further assay addresses T3, Human TROP2 Full length (human, UniProt P09758 31-323).
T3 sequence: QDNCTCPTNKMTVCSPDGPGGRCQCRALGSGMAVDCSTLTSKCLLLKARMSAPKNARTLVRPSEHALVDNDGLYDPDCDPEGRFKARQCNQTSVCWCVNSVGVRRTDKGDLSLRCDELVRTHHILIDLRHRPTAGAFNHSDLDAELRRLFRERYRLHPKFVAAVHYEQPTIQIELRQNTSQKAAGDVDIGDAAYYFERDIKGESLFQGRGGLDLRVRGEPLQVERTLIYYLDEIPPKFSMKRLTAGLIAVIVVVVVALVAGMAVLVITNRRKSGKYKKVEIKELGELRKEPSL
Put plainly: cell-based or functional assay.

For a further assay, the target named is T4, TBD-1 wt.
T4 construct: Fab; the heavy chain entry is VH-CH1; also called wild-type anti-TROP2 Fab (hRS7); TROP2 Fab
Put plainly: competition ELISA, peptide vs Fab binding to captured biotin-TROP2. (In general: ELISA stands for enzyme-linked immunosorbent assay.)

The target of assay [2] is T5, TBD-17 (HC S104A).
T5 construct: anti-TROP2 Fab, CDR3 HC alanine mutant
Put plainly: competition ELISA, Fab on captured TROP2.

Assay [3] has as its target T6, TBD-1 wt (anti-TROP2 Fab, hRS7).
T6 construct: non-mutated Fab
Put plainly: competition ELISA, Fab on captured TROP2.

Another assay has as its target T7, TBD-6 (LC I93A).
T7 construct: anti-TROP2 Fab, CDR3 LC alanine mutant
Put plainly: competition ELISA, Fab on captured TROP2.

The target of assay [4] is T8, TBD-11 (HC R98A).
T8 construct: anti-TROP2 Fab, CDR3 HC alanine mutant
The assay is described as follows: competition ELISA, Fab on captured TROP2.

The target of assay [5] is T9, TBD-22 (HC D109A).
T9 construct: anti-TROP2 Fab, CDR3 HC alanine mutant
The assay is described as follows: competition ELISA, Fab on captured TROP2.

For assay [6], the target named is T10, TBD-11 (HC R98A).
T10 construct: Fab; also called HC R98A mutant
Put plainly: competition ELISA, peptide vs Fab binding to captured biotin-TROP2.

Assay [7] deals with T11, TBD-22 (HC D109A).
T11 construct: Fab; also called HC D109A mutant
The description is as above.

For assay [8], the target named is T12, TBD-17 (HC S104A).
T12 construct: Fab; also called HC S104A mutant
The description is as above.

The target in another assay is T13, TBD-21 (HC F108A).
T13 construct: Fab; also called HC F108A mutant
The description is as above.

Where no end group is shown, it is not given here. Bounds are passed on as bounds.

B1: PC-33 (bispecific antibody)
light: GGVDFCALYHWPICYQGGGGSGGLSGRSDAGSPLGLAGSGGSDIQLTQSPSSLSASVGDRVSITCKASQDVSIAVAWYQQKPGKAPKLLIYSASYRYTGVPDRFSGSGSGTDFTLTISSLQPEDFAVYYCQQHYITPLTFGAGTKVEIKRTVAAPSVFIFPPSDEQLKSGTASVVCLLNNFYPREAKVQWKVDNALQSGNSQESVTEQDSKDSTYSLSSTLTLSKADYEKHKVYACEVTHQGLSSPVTKSFNRGEC
heavy: not shown
notes: Masked polypeptide complex: anti-TROP2 F108A, anti-CD3 wt; CD3 mask …
As for B1, it took 0.574 µM to reach a half-maximal effect in assay [1] (EC50). In addition, the “CyTROP2 HEK293 EC50 (pM)” value with Cyno TROP2 Full length came to 837 pM. In the assay with Human TROP2 Full length, the “H292 Cytotoxicity EC50 (pM)” value was determined as 13200 pM.

B2: PC-40 (bispecific antibody)
light: GGVDFCALYHWPICYQGGGGSGGLSGRSDAGSPLGLAGSGGSDIQLTQSPSSLSASVGDRVSITCKASQDVSIAVAWYQQKPGKAPKLLIYSASYRYTGVPDRFSGSGSGTDFTLTISSLQPEDFAVYYCQQHYITPLTFGAGTKVEIKRTVAAPSVFIFPPSDEQLKSGTASVVCLLNNFYPREAKVQWKVDNALQSGNSQESVTEQDSKDSTYSLSSTLTLSKADYEKHKVYACEVTHQGLSSPVTKSFNRGEC
heavy: EVQLVESGGGLVQPGGSLRLSCAASGSTFYTAVMGWVRQAPGKGLEWVAAIRWTALTTSYADSVKGRFTISRDGAKTTLYLQMNSLRPEDTAVYYCAARGTLGLFTTADSYDYWGQGTLVTVSSGGGGSGGGSGGYLCGPDADETLACYGGGGSGGGLSGRSDAGSPLGLAGSGGGSEVQLVESGGGLVQPGGSLKLSCAASGFTFNKYAMNWVRQASGKGLEWVGRIRSKYNNYATYYADSVKDRFTISRDDSKNTAYLQMNSLKTEDTAVYYCVRHGNFGNSYISYWAYWGQGTLVTVSSGGGGSGGGGSGGGGSQTVVTQEPSFSVSPGGTVTLTCRSSTGAVTSGNYANWVQQTPGQAPRGLIGGTKFLAPGVPDRFSGSILGNKAALTITGAQADDESDYYCVLWYSNRWVFGGGTKLTVLGGGGSQVQLQQSGSELKKPGASVKVSCKASGYTFTNYGMNWVKQAPGQGLKWMGWINTYTGEPTYTDDFKGRFAFSLDTSVSTAYLQISSLKADDTAVYFCARGGFGSSYWYADVWGQGSLVTVSSASTKGPSVFPLAPSSKSTSGGTAALGCLVKDYFPEPVTVSWNSGALTSGVHTFPAVLQSSGLYSLSSVVTVPSSSLGTQTYICNVNHKPSNTKVDKKVEPKSC
notes: Masked polypeptide complex: anti-TROP2 F108A, anti-CD3 with P41S, A49G, N87S ; E227D; CD3 mask YLCGPDADETLACY
For the molecule B2, the EC50 in [1] was 3.51 µM. Also, the “CyTROP2 HEK293 EC50 (pM)” value with Cyno TROP2 Full length came out at 10400 pM. Moreover, in the assay with Human TROP2 Full length, the “H292 Cytotoxicity EC50 (pM)” value was found to be 53200 pM and the “HCT116 Cytotoxicity EC50 (pM)” value is > 100000 pM.

TSLICFRNVYCWNV (cysteine pairing not given here; also: biotinylated, site not given here) [Peptide-30] displayed a half-inhibitory concentration (IC50) with TBD-1 wt of 1.91 µM. This counts as single-digit micromolar.

B3: PC-49 (bispecific antibody)
light: GGVDFCALYHWPICYQGGGSGGSGGISSGLLSGRSDAGSGGSDIQLTQSPSSLSASVGDRVSITCKASQDVSIAVAWYQQKPGKAPKLLIYSASYRYTGVPDRFSGSGSGTDFTLTISSLQPEDFAVYYCQQHYITPLTFGAGTKVEIKRTVAAPSVFIFPPSDEQLKSGTASVVCLLNNFYPREAKVQWKVDNALQSGNSQESVTEQDSKDSTYSLSSTLTLSKADYEKHKVYACEVTHQGLSSPVTKSFNRGEC
heavy: not shown
notes: Masked polypeptide complex with CL2 cleavable linker: anti-TROP2 F108A, anti-CD3 wt
B3 returned an EC50 in [1] of 1.36 µM. Besides, in the assay with Cyno TROP2 Full length, the “CyTROP2 HEK293 EC50 (pM)” value was 10600 pM. Also, in the assay with Human TROP2 Full length, the “H292 Cytotoxicity EC50 (pM)” value worked out at 67400 pM and the “HCT116 Cytotoxicity EC50 (pM)” value is > 100000 pM.

On to VDFCYQYGWPICSRLY (mask peptide for the TROP2 Fab) [Peptide-47], for which the IC50 worked out at 27.2 µM in the assay with TBD-17 (HC S104A) [2]; 6.48 µM in [3]; 7.54 µM with TBD-6 (LC I93A); 46.2 µM with TBD-11 (HC R98A) [4]; 2.01 µM with TBD-22 (HC D109A) [5].

SVLFCVKNLYCWVT (cysteine pairing not given here; also: biotinylated (site not given here)) [Peptide-24] returned an IC50 with TBD-1 wt of 2.78 µM.

Regarding VDFCYQYGWPICSRVD (mask peptide for the TROP2 Fab) [Peptide-45], the concentration for half-maximal inhibition (IC50) with TBD-17 (HC S104A) [2] is 39.6 µM; in assay [3] it was 9.29 µM; in the assay with TBD-6 (LC I93A), 14.5 µM; with TBD-11 (HC R98A) [4] it was 409 µM; with TBD-22 (HC D109A) [5] it was 2.5 µM.

Take VDFCYQYAWPVCSTGD (mask peptide for the TROP2 Fab) [Peptide-52]: the concentration for half-maximal inhibition (IC50) came out at 15.7 µM in the assay with TBD-17 (HC S104A) [2]; 14.3 µM in [3]; 12.3 µM with TBD-6 (LC I93A); 19.1 µM with TBD-11 (HC R98A) [4]; 0.89 µM in the assay with TBD-22 (HC D109A) [5].

Take YSLVCVKNLYCWNL (cysteine pairing not given here; also: biotinylated, site not given here) [Peptide-31]: the IC50 with TBD-1 wt amounted to 2.94 µM.

DNLICVKNLWCWIA (cysteine pairing not given here; also: biotinylated, site not given here) [Peptide-26]: in the assay with TBD-1 wt, the IC50 was 2.23 µM.

In the case of PDFCAVYRWPICYQ (cysteine pairing not given here; also: biotinylated, site not given here) [Peptide-64], the concentration for half-maximal inhibition (IC50) amounted to 1.78 µM with TBD-11 (HC R98A) [6], 0.12 µM in the assay with TBD-22 (HC D109A) [7], 1.6 µM with TBD-17 (HC S104A) [8] and 1.63 µM in the assay with TBD-21 (HC F108A).

Take FSLVCVRNLYCWNV (cysteine pairing not given here; also: biotinylated, site not given here) [Peptide-27]: the IC50 with TBD-1 wt stood at 0.74 µM.

B4: PC-48 (bispecific antibody)
light: GGVDFCALYHWPICYQGGGGSGGGSGGSGGASSGAGGSGGGSDIQLTQSPSSLSASVGDRVSITCKASQDVSIAVAWYQQKPGKAPKLLIYSASYRYTGVPDRFSGSGSGTDFTLTISSLQPEDFAVYYCQQHYITPLTFGAGTKVEIKRTVAAPSVFIFPPSDEQLKSGTASVVCLLNNFYPREAKVQWKVDNALQSGNSQESVTEQDSKDSTYSLSSTLTLSKADYEKHKVYACEVTHQGLSSPVTKSFNRGEC
heavy: not shown
notes: Masked polypeptide complex with non-cleavable linker: anti-TROP2 F108A, anti-CD3 wt
The molecule B4 gave a 50% effective concentration (EC50) in assay [1] of 3.96 µM. The “CyTROP2 HEK293 EC50 (pM)” value with Cyno TROP2 Full length worked out at 69900 pM. For the same molecule, in the assay with Human TROP2 Full length, the “H292 Cytotoxicity EC50 (pM)” value is > 100000 pM and the “HCT116 Cytotoxicity EC50 (pM)” value was > 100000 pM.

IDFCLIYNWPVCDT (cysteine pairing not given here; also: biotinylated, site not given here) [Peptide-63]: the IC50 with TBD-11 (HC R98A) [6] is 6.81 µM; with TBD-22 (HC D109A) [7] it was 0.11 µM; with TBD-17 (HC S104A) [8], 1.4 µM; with TBD-21 (HC F108A) it was 5.89 µM.

VEICKQWFYTVCLS (mask peptide for the TROP2 Fab) [Peptide-58] registered a concentration for half-maximal inhibition (IC50) in the assay with TBD-11 (HC R98A) [4] of 1.13 µM.

With NYLLCVKNLYCWIV (cysteine pairing not given here; also: biotinylated, site not given here) [Peptide-28], the half-inhibitory concentration (IC50) in the assay with TBD-1 wt worked out at 1.63 µM.

As for VEFCKQWTWFGCMT (mask peptide for the TROP2 Fab) [Peptide-44], the IC50 with TBD-11 (HC R98A) [4] was found to be 3.55 µM. In other words, the single-digit micromolar range.

With VDFCSFYRWPICET (cysteine pairing not given here; also: biotinylated (site not given here)) [Peptide-20], the IC50 with TBD-1 wt stood at 1.61 µM.
